Test results published in US20240352093A1, “PEPTIDE AND GELATIN HYBRID HYDROGELS AS ECONOMICAL ALTERNATIVES TO COMMON BASEMENT-MEMBRANE MATRICES” (AGENCY FOR SCIENCE, TECHNOLOGY AND RESEARCH, priority 2021, published 2024).
No end group written: not given here.

Key:
SW480 tumor spheroids = assay: Cell viability (MTS) of SW480 tumor spheroids cultured in hydrogels; type: cell-based, human; conditions: Day 7; hybrid hydrogels peptide_0.25%/G_3% (FIG. 12B)
Description: Human hepatocellular carcinoma HepG2 and human colorectal adenocarcinoma SW480 were cultivated in Dulbecco's Modified Eagle Medium (DMEM), supplemented by 10% Fetal Bovine Serum and 1% Penicillin, incubated at 37° C., 5% CO2. To prepare the tumor spheroids, 200 μL of cell suspension (3500 cells/mL) were seeded per well onto 96-well ultralow adhesion round bottom plates (Corning, U.S.A.). After which, the plate was centrifuged for 5 min at 1500 rpm) and incubated at 37° C. for 2-3 days for the cells to assemble into tumor spheroids. The IVK8/gelatin hydrogels were then prepared according to the steps in Section 2.2 and was used right after mixing the peptide and gelatin together. A positive control group was set up using the basement membrane product, Geltrex™ (Thermofisher, U.S.A.). Geltrex was kept in an ice bath during the experiment. The hydrogels were transferred to the tumor spheroids by first removing 150 μL of the spent medium. Subsequently, 70 μL of the hydrogels were added per well and the samples and incubated at 37° C. for 30 min before 100 μL were added to each well. The spent medium was replaced once every 2 to 3 days by removing 80 μL medium and adding 80 μL fresh medium. The growth of the tumor spheroids was monitored over time using DMil inverted light microscope (Leica, U.S.A.).
The viability of tumor spheroids cultured in the hydrogels for 7 days was determined by the CellTiter 96 AQueous One Solution Cell Proliferation Assay (MTS) (Promega, U.S.A.). Briefly, 80 μL of the spent medium was removed from each well containing the tumor spheroids. Next, 80 μL containing DMEM: MTS at 1:1 volume ratio was then added back into the wells. The plate was then incubated at 37° C. for 4.5 h. After which, the medium was pipetted several times to break up any aggregates that may be present and 100 μL of this solution was transferred to a fresh 96 well plate. The absorbance of the samples was measured at wavelength 490 nm using a microplate reader (Tecan, Switzerland).

[1] = Transparency and clarity of hydrogels (tube images, light microscopy); type: physicochemical; conditions: SW480 spheroids Day 7 (FIG. 13)
Description: IVK8 was dissolved in 300 mM sucrose sterile solution at a peptide concentration of 1.0% wt/vol. and stored at 4° C. until required. The peptide remains a solution at cold conditions (4° C. or ice bath). Gelatin was dissolved using sterile DI water at 60 mg/ml at 60° C. To form the hydrogel, gelatin was removed from the warm water bath and the cold IVK8 solution was added to the gelatin. DMEM was then added to this mixture at a volume ratio of 3:7 DMEM: mixture and was left to stand at 37° C. for 10 min for gelation to occur. The procedure for preparing IVK8 hydrogels was the same. Once formed, the gels remain stable at temperatures between 25 to 37° C. Similarly, the other peptide/gelatin hydrogels may be prepared by the same method described for IVK8, further detail and modifications of the general procedure may be found in WO2021015675. For example. IIK8, ILK8, IVK12, and IIK12 may be used instead of IVK8 to prepare the peptide/gelatin hydrogel. It may be observed from FIGS. 10A to 10 that shorter peptides result in clearer hydrogels. […] The high opacity of IVK12_0.25%/Gelatin_3% (FIG. 11D) and IIK12_0.25%/Gelatin_3% (FIG. 11E) may make them less suitable for 3D culture of tumor spheroid due to difficulties in observing the spheroids.

[2] = Gelation time by vial tilting method; type: physicochemical; conditions: 2% wt/vol.
Description: Vial tilting method was applied to determine the gelation time of the hydrogels. […] Rheology experiments were performed on a control-strain rheometer (ARES G2, TA instruments), as described previously. Briefly, a parallel plate measuring geometry (8 mm diameter, gap 1 mm) with oscillatory strain of 1% and the dynamic storage modulus (G′) and loss modulus (G″) were examined as a function of frequency from 1 to 100 rad/s. In addition, a flow sweep to study the viscosity changes as a function of shear rate of hydrogel samples.

[3] = Water retention of IVK8 peptide hydrogel; type: physicochemical; conditions: peptide hydrogel in water at high concentrations

| Sequence | cell viability of SW480 tumor spheroids compared to Geltrex (SW480 tumor spheroids) | opacity of peptide/gelatin hybrid hydrogel in spheroid culture [1] | gelation time ([2]; 37° C.) | gelation time ([2]; room temperature (23-24° C.)) [min] | water retention [3] [%] |
| --- | --- | --- | --- | --- | --- |
| IRVKIEVEIRVK (IRVKIEVEIRVK-NH2) [IVK12, self-assembling peptide] | significantly lower viability | most opaque | – | – | – |
| IEVEIRVK (IEVEIRVK-NH2) [IVK8, self-assembling peptide] | no significant difference | least opaque | less than 30 min | ≤ 60 | ~99 |
| IEIEIRIK (IEIEIRIK-NH2) [IIK8, self-assembling peptide] | no significant difference | least opaque | – | – | – |
| IRIKIEIEIRIK (IRIKIEIEIRIK-NH2) [IIK12, self-assembling peptide] | significantly lower viability | more opaque | – | – | – |
| IELEIRLK (IELEIRLK-NH2) [ILK8, self-assembling peptide] | no significant difference | more opaque | – | – | – |
